Experimental data: patent publication US20230407276, “CRISPR-CAS EFFECTOR POLYPEPTIDES AND METHODS OF USE THEREOF” (The Regents of the University of California, published 2023)

Key:
[1] = tested on: PlmCasX dH2 Helical-II domain deleted; assay: cleavage_in_vitro; conditions: NTS; 37 C, Mg2+; TS value 1.741e-5; unit assumed
[2] = tested on: DpbCasX dH2 Helical-II domain deleted; assay: cleavage_in_vitro; conditions: NTS; 37 C, Mg2+; TS value 0.008223; unit assumed
DpbCasX (DpbCasXv1) = biological target: T1, DpbCasX (DpbCasXv1); assay: cleavage_in_vitro; NTS; 37 C, Mg2+; conditions: label: 5'-32P
T1 chain: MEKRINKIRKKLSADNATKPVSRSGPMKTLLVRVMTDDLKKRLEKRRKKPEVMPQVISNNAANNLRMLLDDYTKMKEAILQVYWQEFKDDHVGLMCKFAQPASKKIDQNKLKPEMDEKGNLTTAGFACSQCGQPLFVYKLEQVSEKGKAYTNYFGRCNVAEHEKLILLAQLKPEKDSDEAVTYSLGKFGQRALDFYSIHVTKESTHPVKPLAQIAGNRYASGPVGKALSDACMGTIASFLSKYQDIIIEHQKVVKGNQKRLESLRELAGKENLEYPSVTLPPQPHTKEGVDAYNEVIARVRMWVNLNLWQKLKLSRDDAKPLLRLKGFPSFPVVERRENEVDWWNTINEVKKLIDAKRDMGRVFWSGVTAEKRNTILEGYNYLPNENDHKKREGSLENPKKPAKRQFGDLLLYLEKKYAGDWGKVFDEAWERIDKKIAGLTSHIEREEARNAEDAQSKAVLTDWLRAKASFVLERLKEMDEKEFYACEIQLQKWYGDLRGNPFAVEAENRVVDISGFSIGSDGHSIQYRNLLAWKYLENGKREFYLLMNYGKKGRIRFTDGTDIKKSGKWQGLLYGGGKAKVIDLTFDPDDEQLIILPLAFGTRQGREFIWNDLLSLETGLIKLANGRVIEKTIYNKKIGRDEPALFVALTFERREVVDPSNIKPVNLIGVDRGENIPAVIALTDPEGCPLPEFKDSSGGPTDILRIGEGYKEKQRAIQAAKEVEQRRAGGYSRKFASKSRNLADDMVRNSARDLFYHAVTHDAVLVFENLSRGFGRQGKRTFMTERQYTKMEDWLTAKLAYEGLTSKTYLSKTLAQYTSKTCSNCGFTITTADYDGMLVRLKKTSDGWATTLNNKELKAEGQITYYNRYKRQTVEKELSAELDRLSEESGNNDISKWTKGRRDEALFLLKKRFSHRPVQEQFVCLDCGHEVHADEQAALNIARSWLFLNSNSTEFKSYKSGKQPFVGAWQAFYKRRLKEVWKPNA
Excerpt: (§1) FIG. 14A-14G. Updated design of the CasX sgRNA. […] The coverage axis denotes the number of sequencing reads. The abscissa denotes the genome sequence of the hypothetical tracrRNA region. (B) The structural details for sgRNAv1. The additional U at the 5′ end was hypothetically modeled in the top panel. The structural details of the G30-C54 base-paring region in sgRNAv1 are also shown in the bottom panel. […] The sgRNAv1-2 architecture is modeled based on sgRNAv1. The potential base-pairing between the additional 5′ U and A29 is labeled with a dashed line. The Helical-II domain was modeled to indicate the interaction interface with the sgRNA scaffold stem. (D) In vitro dsDNA cleavage activity comparison among different sgRNAs by DpbCasX and PlmCasX. The NTS was ³²P labeled on the 5′ end. (E) Cleavage kinetics analysis was based on the NTS band density from the cleaved fractions compared to the input NTS band density at the reaction time of 0 min (n=3, mean±s.d.) (DpbCasX-v2 from FIG. 15A). The fractions were collected from 0 min to 6 hrs. […] (F) The hypothetical secondary architectures of sgRNAv2 designs. […] The fractions were collected at 0 min, 10 mins, 20 mins, 40 mins, 1 hr, 2 hrs, 4 hrs and 6 hrs, respectively. OC/N indicates the open-circle or nicked plasmids, L indicates the linearized plasmids and SC indicates the super-coiled plasmids (n=3, representative gel shown).

PlmCasX (PlmCasXv1) = biological target: T2, PlmCasX (PlmCasXv1); assay: cleavage_in_vitro; NTS; 37 C, Mg2+; conditions: label: 5'-32P
T2 chain: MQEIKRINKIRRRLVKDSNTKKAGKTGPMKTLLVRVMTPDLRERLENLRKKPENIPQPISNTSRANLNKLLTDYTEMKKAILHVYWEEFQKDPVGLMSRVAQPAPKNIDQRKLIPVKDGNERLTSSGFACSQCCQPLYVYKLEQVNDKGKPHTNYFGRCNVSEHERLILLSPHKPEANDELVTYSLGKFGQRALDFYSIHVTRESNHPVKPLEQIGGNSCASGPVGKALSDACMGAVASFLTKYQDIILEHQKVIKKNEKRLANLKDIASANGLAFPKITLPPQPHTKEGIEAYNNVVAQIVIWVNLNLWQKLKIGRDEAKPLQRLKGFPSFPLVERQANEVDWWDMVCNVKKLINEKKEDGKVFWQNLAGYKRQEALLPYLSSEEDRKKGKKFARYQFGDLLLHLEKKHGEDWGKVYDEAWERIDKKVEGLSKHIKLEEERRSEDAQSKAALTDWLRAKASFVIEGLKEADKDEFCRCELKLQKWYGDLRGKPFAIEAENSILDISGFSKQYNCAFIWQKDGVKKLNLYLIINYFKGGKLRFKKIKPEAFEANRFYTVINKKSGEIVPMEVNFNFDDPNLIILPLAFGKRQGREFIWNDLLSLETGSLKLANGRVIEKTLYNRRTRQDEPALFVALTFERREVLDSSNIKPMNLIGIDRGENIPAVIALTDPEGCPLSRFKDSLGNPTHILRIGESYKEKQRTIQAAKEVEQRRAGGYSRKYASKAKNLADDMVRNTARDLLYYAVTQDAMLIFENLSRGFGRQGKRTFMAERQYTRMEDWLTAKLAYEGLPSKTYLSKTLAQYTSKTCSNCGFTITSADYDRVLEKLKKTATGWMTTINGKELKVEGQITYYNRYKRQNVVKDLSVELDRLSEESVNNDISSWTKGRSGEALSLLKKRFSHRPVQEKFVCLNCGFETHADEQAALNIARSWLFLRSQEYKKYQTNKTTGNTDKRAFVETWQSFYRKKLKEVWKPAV
Excerpt: as §1

**Q.** How did the activity [1] turn out when “GGCGCGUUUAUUCCAUUACUUUGGAGCCAGUCCCAGCGACUAUGUCGUAUGGACGAAGCGCUUAUUUAUCGGAGAGAAACCGAUAAGUAAAACGCAUCAAAGUCCUGCAGCAGAAAAUCAAA / ATCGTTATACTTTGATTTTCTGCTGCAGGATGAAATCCCG / CGGGATTTCATCCTGCAGCAGAAAATCAAAGTATAACGAT [sgRNAv1 ; dsDNA target 40 bp]” was run?
**A.** 0.00268 min⁻¹

**Q.** What about the activity [2] of the same molecule?
**A.** 0.00671 min⁻¹

B1: sgRNAv1-2 ; dsDNA target 40 bp (ssRNA ; dsDNA)
RNA: UGGCGCGUUUAUUCCAUUACUUUGGAGCCAGUCCCAGCGACUAUGUCGUAUGGACGAAGCGCUUAUUUAUCGGAGAGAAACCGAUAAGUAAAACGCAUCAAAGUCCUGCAGCAGAAAAUCAAAG
DNA 1: ATCGTTATACTTTGATTTTCTGCTGCAGGATGAAATCCCG
DNA 2: CGGGATTTCATCCTGCAGCAGAAAATCAAAGTATAACGAT
**Q.** With B1 as the molecule, how does the activity (DpbCasX (DpbCasXv1)) read?
**A.** 0.0109 k (unit not stated; min-1 inferred)

B2: sgRNAv2-3 ; dsDNA target 40 bp (ssRNA ; dsDNA)
RNA: UACUGGCGCUUUUAUCUCAUUACUUUGAGAGCCAUCACCAGCGACUAUGUCGUAUGGGUAAAGCGCUUAUUUAUCGGAGAAACCGAUAAAUAAGAAGCAUCAAAGUCCUGCAGCAGAAAAUCAAAG
DNA 1: ATCGTTATACTTTGATTTTCTGCTGCAGGATGAAATCCCG
DNA 2: CGGGATTTCATCCTGCAGCAGAAAATCAAAGTATAACGAT
**Q.** How did the activity (PlmCasX (PlmCasXv1)) turn out when B2 was run?
**A.** 0.0217 k (unit not stated; min-1 inferred)

B3: sgRNAv2-2 ; dsDNA target 40 bp (ssRNA ; dsDNA)
RNA: UGGCGCUUUUAUCUCAUUACUUUGAGAGCCAUCACCAGCGACUAUGUCGUAUGGGUAAAGCGCUUAUUUAUCGGAGAAACCGAUAAAUAAGAAGCAUCAAAGUCCUGCAGCAGAAAAUCAAAG
DNA 1: ATCGTTATACTTTGATTTTCTGCTGCAGGATGAAATCCCG
DNA 2: CGGGATTTCATCCTGCAGCAGAAAATCAAAGTATAACGAT
**Q.** How did the activity (PlmCasX (PlmCasXv1)) turn out when B3 was run?
**A.** 0.00919 k (unit not stated; min-1 inferred)
